# Results published in patent US12012453B2, “Methods for treating late-stage small cell lung cancer by administering a human anti-PD-L1 antibody, an etoposide and a platinum-based therapeutic” (ASTRAZENECA AB, priority 2019, dated 2024).
# B1: Durvalumab: human IgG1 monoclonal antibody that selectively binds PD-L1 and blocks binding to PD-1 and CD80; VL SEQ ID NO: 1, VH SEQ ID NO: 2 (antibody, V domains shown)
# VH: EVQLVESGGGLVQPGGSLRLSCAASGFTFSRYWMSWVRQAPGKGLEWVANIKQDGSEKYYVDSVKGRFTISRDNAKNSLYLQMNSLRAEDTAVYYCAREGGWFGELAFDYWGQGTLVTVSS
# VL: EIVLTQSPGTLSLSPGERATLSCRASQRVSSSYLAWYQQKPGQAPRLLIYDASSRATGIPDRFSGSGSGTDFTLTISRLEPEDFAVYYCQQYGSLPWTFGQGTKVEIK
# Columns and labels:
# [1] = tested on: patients with platinum-refractory disease; conditions: second-line; cited from earlier work
# human CTLA-4 = human CTLA-4 (Homo sapiens, UniProt P16410); conditions: cited from earlier work
# Sequence of human CTLA-4 (P16410 36-223): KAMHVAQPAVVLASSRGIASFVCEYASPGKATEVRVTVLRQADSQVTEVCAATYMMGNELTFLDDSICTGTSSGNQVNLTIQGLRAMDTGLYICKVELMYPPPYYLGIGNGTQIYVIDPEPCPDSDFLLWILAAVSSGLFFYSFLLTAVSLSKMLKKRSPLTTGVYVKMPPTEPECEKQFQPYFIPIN
# Fc receptors = conditions: cited from earlier work
# [2] = tested on: natural killer (NK) ADCC activity; conditions: cited from earlier work
# patients with ES-SCLC [3] = test: CASPIAN phase 3 trial: overall survival and progression-free survival, intention-to-treat population; format: in vivo, human; conditions: ITT
# Method: (§1) Eligible patients included adults with histologically or cytologically documented ES-SCLC and were treatment naïve. […] Patients with brain metastases were eligible provided they were asymptomatic or treated and stable off steroids and anticonvulsants for at least 1 month prior to study entry.
# Randomization was stratified according to planned platinum agent.
# Survival was assessed every 2 months following treatment discontinuation.
# The primary endpoint was OS (time from randomization to death from any cause). Secondary endpoints included progression-free survival (PFS; time from randomization to the date of objective disease progression or death from any cause in the absence of progression), objective response rate (ORR), OS at 18 and 24 months, PFS at 6 and 12 months, and safety. PFS and ORR were assessed according to RECIST v1.1.
# patients with ES-SCLC [4] = test: CASPIAN phase 3 trial: tumor response per RECIST v1.1 (objective response, duration of response); format: in vivo, human; conditions: for Odds ratio (95% CI) for ORR versus EP: logistic regression adjusted for platinum agent
# Method: as §1
# Randomization was stratified according to planned platinum agent. […]
# The primary endpoint was OS (time from randomization to death from any cause). […] PFS and ORR were assessed according to RECIST v1.1.
# patients with ES-SCLC [5] = conditions: in vivo
# Method: (§2) Patients were randomized in a 1:1:1 ratio to receive durvalumab 1500 mg plus EP, durvalumab 1500 mg plus tremelimumab 75 mg plus EP, or EP (FIG. 1). Across all three study arms, chemotherapy consisted of etoposide 80-100 mg/m^2 (administered on days 1 to 3 of each cycle), with either carboplatin area under the curve 5-6 mg/mL/min or cisplatin 75-80 mg/m^2 (administered on day 1 of each cycle). Randomization was stratified according to planned platinum agent. Patients in the immunotherapy arms received up to 4 cycles of EP plus durvalumab every 3 weeks (q3w) followed by maintenance durvalumab 1500 mg every 4 weeks (q4w). Patients in the EP arm could receive an additional 2 cycles of EP (up to 6 cycles total) and prophylactic cranial irradiation (PCI). Patients continued treatment until Response Evaluation Criteria in Solid Tumor version 1.1 (RECIST v1.1)-defined disease progression, unacceptable toxicity, or other discontinuation criteria were met. Continuation of study treatment following disease progression was permitted if there was evidence of clinical benefit (FIG. 1). In-study crossover from the EP to the immunotherapy plus EP arms was not allowed.
# (§3) Tumor imaging was performed every 6 weeks for the first 12 weeks, and every 8 weeks thereafter, until confirmed objective disease progression. Survival was assessed every 2 months following treatment discontinuation.
# (§4) All patients who received at least one dose of study treatment were included in safety analyses.
# patients with ES-SCLC [6] = test: CASPIAN phase 3 trial: treatment-related adverse events (safety population)
# Method: as §2, §3, §4
# [7] = tested on: PD-L1-mediated suppression of human T-cell activation; conditions: in vitro; cited from earlier work
# xenograft model = conditions: cited from earlier work
# [8] = final analysis, Kaplan-Meier, listed as D+EP
molecule,measurement,setting,value
CC[C@@]1(O)C(=O)OCc2c1cc1n(c2=O)Cc2cc3c(CN(C)C)c(O)ccc3nc2-1 [topotecan],one-year survival rate,[1],9%
same,response rates,[1],5%
"Tremelimumab: antibody that selectively binds a CTLA-4 polypeptide, as disclosed in U.S. Pat. No. 8,491,895",cross-reactivity to related human proteins,human CTLA-4,no cross-reactivity to related human proteins
same,specific binding to Fc receptors,Fc receptors,minimal specific binding to Fc receptors
same,induction of NK ADCC activity,[2],does not induce natural killer (NK) antibody-dependent cell-mediated cytotoxicity (ADCC) activity
Durvalumab + EP,patients who had died,patients with ES-SCLC [3]; final analysis data cutoff,78%
same,patients who had disease progression or died,patients with ES-SCLC [3]; final data cutoff,87%
same,12-month PFS rate,patients with ES-SCLC [3]; final/updated analysis,17.9%
same,24-month PFS rate,patients with ES-SCLC [3]; final/updated analysis,11.0%
same,HR for PFS versus EP,patients with ES-SCLC [3]; final/updated analysis,0.80
same,Median OS,patients with ES-SCLC [3]; final/updated analysis,12.9 months
same,Median PFS,patients with ES-SCLC [3]; final/updated analysis,5.1 months
same,HR for OS versus EP,"patients with ES-SCLC [3]; final/updated analysis, Cox model stratified by platinum agent",0.75
same,24-month OS rate,"patients with ES-SCLC [3]; final/updated analysis, Kaplan-Meier",22.2%
same,Best objective response: Complete response,patients with ES-SCLC [4]; final analysis,7 (3) n (%)
same,Best objective response: Not evaluable,patients with ES-SCLC [4]; final analysis,3 (1) n (%)
same,Best objective response: Partial response,patients with ES-SCLC [4]; final analysis,175 (65) n (%)
same,Best objective response: Progressive disease,patients with ES-SCLC [4]; final analysis,32 (12) n (%)
same,Best objective response: Stable disease for at least 6 weeks,patients with ES-SCLC [4]; final analysis,20 (7) n (%)
same,Best objective response: Unconfirmed response,patients with ES-SCLC [4]; final analysis,31 (12) n (%)
same,"Best reduction from baseline in target lesion size, Mean (SD)",patients with ES-SCLC [4]; final analysis,−57.0 (24.59) %
same,"Best reduction from baseline in target lesion size, Median (IQR)",patients with ES-SCLC [4]; final analysis,"−60.4 (−72.9, −44.3) %"
same,"Odds ratio vs EP (95% CI), confirmed objective response",patients with ES-SCLC [4]; final analysis,1.53 (1.08-2.18)
same,"Odds ratio vs EP (95% CI), unconfirmed objective response",patients with ES-SCLC [4]; final analysis,1.61 (1.09-2.40)
same,Remaining in response at 6 months (95% CI),"patients with ES-SCLC [4]; final analysis, Kaplan-Meier",39.3 (32.2-46.3) %
same,Remaining in response at 12 months (95% CI),"patients with ES-SCLC [4]; final analysis, Kaplan-Meier",23.2 (17.3-29.7) %
same,Remaining in response at 24 months (95% CI),"patients with ES-SCLC [4]; final analysis, Kaplan-Meier",13.5 (8.7-19.3) %
same,Remaining in response at 12 months (95% CI),patients with ES-SCLC [4]; [8],23.2%
same,Remaining in response at 24 months (95% CI),patients with ES-SCLC [4]; [8],13.5%
same,Median (95% CI) duration of response,"patients with ES-SCLC [4]; final analysis, confirmed responders, Kaplan-Meier",5.1 (4.9-5.3) months
same,"Best reduction from baseline in target lesion size, Median (IQR)","patients with ES-SCLC [4]; final analysis, listed as D+EP",−60.4%
same,"Odds ratio vs EP (95% CI), confirmed objective response","patients with ES-SCLC [4]; final analysis, listed as D+EP",1.53
same,confirmed objective response,"patients with ES-SCLC [4]; final analysis, post hoc",68%
same,Best objective response: Not evaluable,patients with ES-SCLC [4]; interim analysis,3 (1.1) n (%)
same,Best objective response: Progressive disease,patients with ES-SCLC [4]; interim analysis,32 (11.9) n (%)
same,Best objective response: Stable disease ≥6 weeks,patients with ES-SCLC [4]; interim analysis,20 (7.5) n (%)
same,Remaining in response at 6 months,patients with ES-SCLC [4]; interim analysis,39.3%
same,Remaining in response at 12 months,patients with ES-SCLC [4]; interim analysis,22.7%
same,confirmed ORR,patients with ES-SCLC [4]; interim analysis,67.9%
same,confirmed complete response,patients with ES-SCLC [4]; interim analysis,2.2%
same,ORR (confirmed),"patients with ES-SCLC [4]; interim analysis, RECIST v1.1",182 (67.9) n (%)
same,Best objective response: Complete response,"patients with ES-SCLC [4]; interim analysis, confirmed",6 (2.2) n (%)
same,Best objective response: Partial response,"patients with ES-SCLC [4]; interim analysis, confirmed",176 (65.7) n (%)
same,Median DoR (95% CI),"patients with ES-SCLC [4]; interim analysis, confirmed responders",5.1 (4.9-5.3) months
same,Median DoR (95% CI),"patients with ES-SCLC [4]; interim analysis, confirmed responders, listed as durvalumab plus EP",5.1 months
same,Odds ratio (95% CI) for ORR versus EP,patients with ES-SCLC [4]; interim analysis,1.56 (1.095-2.218)
same,Odds ratio (95% CI) for ORR versus EP,"patients with ES-SCLC [4]; interim analysis, listed as durvalumab plus EP",1.56
same,"unconfirmed and confirmed objective response rates, amount higher versus EP",patients with ES-SCLC [4]; updated analysis,approximately 10%
same,Any treatment-related event leading to death,patients with ES-SCLC [5],6 (2) n (%)
same,"Alopecia, treatment-related",patients with ES-SCLC [6]; Any grade,75 (28) n (%)
same,"Anaemia, treatment-related",patients with ES-SCLC [6]; Any grade,85 (32) n (%)
same,Any treatment-related event,patients with ES-SCLC [6]; Any grade,237 (89) n (%)
same,Any treatment-related event leading to discontinuation,patients with ES-SCLC [6]; Any grade,16 (6) n (%)
same,Any treatment-related serious event,patients with ES-SCLC [6]; Any grade,35 (13) n (%)
same,"Asthenia, treatment-related",patients with ES-SCLC [6]; Any grade,27 (10) n (%)
same,"Constipation, treatment-related",patients with ES-SCLC [6]; Any grade,23 (9) n (%)
same,"Decreased appetite, treatment-related",patients with ES-SCLC [6]; Any grade,33 (12) n (%)
same,"Diarrhoea, treatment-related",patients with ES-SCLC [6]; Any grade,17 (6) n (%)
same,"Fatigue, treatment-related",patients with ES-SCLC [6]; Any grade,30 (11) n (%)
same,"Febrile neutropenia, treatment-related",patients with ES-SCLC [6]; Any grade,15 (6) n (%)
same,"Hyperthyroidism, treatment-related",patients with ES-SCLC [6]; Any grade,22 (8) n (%)
same,"Hypothyroidism, treatment-related",patients with ES-SCLC [6]; Any grade,23 (9) n (%)
same,"Leucopenia, treatment-related",patients with ES-SCLC [6]; Any grade,36 (14) n (%)
same,"Lipase increased, treatment-related",patients with ES-SCLC [6]; Any grade,10 (4) n (%)
same,"Nausea, treatment-related",patients with ES-SCLC [6]; Any grade,74 (28) n (%)
same,"Neutropenia, treatment-related",patients with ES-SCLC [6]; Any grade,104 (39) n (%)
same,"Neutrophil count decreased, treatment-related",patients with ES-SCLC [6]; Any grade,24 (9) n (%)
same,"Paraesthesia, treatment-related",patients with ES-SCLC [6]; Any grade,14 (5) n (%)
same,"Platelet count decreased, treatment-related",patients with ES-SCLC [6]; Any grade,14 (5) n (%)
same,"Pruritus, treatment-related",patients with ES-SCLC [6]; Any grade,11 (4) n (%)
same,"Rash, treatment-related",patients with ES-SCLC [6]; Any grade,10 (4) n (%)
same,"Thrombocytopenia, treatment-related",patients with ES-SCLC [6]; Any grade,37 (14) n (%)
same,"Vomiting, treatment-related",patients with ES-SCLC [6]; Any grade,32 (12) n (%)
same,"White blood cell count decreased, treatment-related",patients with ES-SCLC [6]; Any grade,12 (5) n (%)
same,"Alopecia, treatment-related",patients with ES-SCLC [6]; Grade 3 or 4,3 (1) n (%)
same,"Anaemia, treatment-related",patients with ES-SCLC [6]; Grade 3 or 4,21 (8) n (%)
same,Any treatment-related event,patients with ES-SCLC [6]; Grade 3 or 4,121 (46) n (%)
same,Any treatment-related event leading to discontinuation,patients with ES-SCLC [6]; Grade 3 or 4,3 (1) n (%)
same,Any treatment-related serious event,patients with ES-SCLC [6]; Grade 3 or 4,25 (9) n (%)
same,"Asthenia, treatment-related",patients with ES-SCLC [6]; Grade 3 or 4,2 (1) n (%)
same,"Constipation, treatment-related",patients with ES-SCLC [6]; Grade 3 or 4,0 n (%)
same,"Decreased appetite, treatment-related",patients with ES-SCLC [6]; Grade 3 or 4,1 (<1) n (%)
same,"Diarrhoea, treatment-related",patients with ES-SCLC [6]; Grade 3 or 4,2 (1) n (%)
same,"Fatigue, treatment-related",patients with ES-SCLC [6]; Grade 3 or 4,2 (1) n (%)
same,"Febrile neutropenia, treatment-related",patients with ES-SCLC [6]; Grade 3 or 4,13 (5) n (%)
same,"Hyperthyroidism, treatment-related",patients with ES-SCLC [6]; Grade 3 or 4,0 n (%)
same,"Hypothyroidism, treatment-related",patients with ES-SCLC [6]; Grade 3 or 4,0 n (%)
same,"Leucopenia, treatment-related",patients with ES-SCLC [6]; Grade 3 or 4,15 (6) n (%)
same,"Lipase increased, treatment-related",patients with ES-SCLC [6]; Grade 3 or 4,8 (3) n (%)
same,"Nausea, treatment-related",patients with ES-SCLC [6]; Grade 3 or 4,0 n (%)
same,"Neutropenia, treatment-related",patients with ES-SCLC [6]; Grade 3 or 4,61 (23) n (%)
same,"Neutrophil count decreased, treatment-related",patients with ES-SCLC [6]; Grade 3 or 4,16 (6) n (%)
same,"Paraesthesia, treatment-related",patients with ES-SCLC [6]; Grade 3 or 4,0 n (%)
same,"Platelet count decreased, treatment-related",patients with ES-SCLC [6]; Grade 3 or 4,4 (2) n (%)
same,"Pruritus, treatment-related",patients with ES-SCLC [6]; Grade 3 or 4,0 n (%)
same,"Rash, treatment-related",patients with ES-SCLC [6]; Grade 3 or 4,0 n (%)
same,"Thrombocytopenia, treatment-related",patients with ES-SCLC [6]; Grade 3 or 4,14 (5) n (%)
same,"Vomiting, treatment-related",patients with ES-SCLC [6]; Grade 3 or 4,0 n (%)
same,"White blood cell count decreased, treatment-related",patients with ES-SCLC [6]; Grade 3 or 4,4 (2) n (%)
B1,relief of PD-L1-mediated suppression of human T-cell activation,[7],can relieve PD-L1-mediated suppression of human T-cell activation in vitro
same,tumor growth inhibition,xenograft model,inhibits tumor growth in a xenograft model via a T-cell dependent mechanism
